Reference: patent publication US20140120109A1

Tests used:
[1] = target: full length human TL1A expressed on HEK293 cells (human) (UniProt O95150); test: flow, HEK293/hTL1A, isotype control in place of anti-hTL1A (background; columns c8-c9)
[2] = target: full length human TL1A expressed on HEK293 cells (human) (UniProt O95150); test: flow, HEK293/hTL1A, isotype control 1 ug/ml in place of anti-hTL1A (background; same value as r16c2, printed under column 1725P)
[3] = target: full length human TL1A expressed on HEK293 cells (human) (UniProt O95150); test: flow, HEK293/hTL1A, isotype control in place of anti-hTL1A (background; columns c2-c7)
[4] = target: full length human TL1A expressed on HEK293 cells (human) (UniProt O95150); test: flow, HEK293/hTL1A, isotype control 1 ug/ml in place of anti-hTL1A (background; same value as r16c2, printed under column 1804N)
[5] = target: full length human TL1A expressed on HEK293 cells (human) (UniProt O95150); test: flow, HEK293/hTL1A, isotype control 1 ug/ml in place of anti-hTL1A (background; same value as r16c2, printed under column 1817N)
[6] = target: full length human TL1A expressed on HEK293 cells (human) (UniProt O95150); test: flow, HEK293/hTL1A, isotype control 1 ug/ml in place of anti-hTL1A (background; same value as r16c8, printed under column 1745P)
[7] = target: full length human TL1A expressed on HEK293 cells (human) (UniProt O95150); test: flow, HEK293/hTL1A, isotype control 1 ug/ml in place of anti-hTL1A (background; same value as r16c2, printed under column 1742P)
[8] = target: full length human TL1A expressed on HEK293 cells (human) (UniProt O95150); test: flow, HEK293/hTL1A, isotype control 1 ug/ml in place of anti-hTL1A (background; same value as r16c2, printed under column 1805N)

Chain of full length human TL1A expressed on HEK293 cells (human) (O95150 whole entry): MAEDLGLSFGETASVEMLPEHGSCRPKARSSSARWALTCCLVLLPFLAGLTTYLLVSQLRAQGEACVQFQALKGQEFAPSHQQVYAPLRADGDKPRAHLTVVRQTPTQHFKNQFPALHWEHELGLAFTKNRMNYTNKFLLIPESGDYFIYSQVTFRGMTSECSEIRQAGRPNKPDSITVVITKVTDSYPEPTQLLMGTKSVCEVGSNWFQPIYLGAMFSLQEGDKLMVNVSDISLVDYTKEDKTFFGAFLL

MFI [1]: 17.9
MFI [2]: 27.5
MFI [3]: 27.5
MFI [4]: 27.5
MFI [5]: 27.5
MFI [6]: 17.9
MFI [7]: 27.5
MFI [8]: 27.5
Substance: negative isotype control antibody (human IgG4)
